Test results from PMC9482650, “Quantitative fragmentomics allow affinity mapping of interactomes” (Nature Communications, 2022).

Legend:
Experiment in all cases: holdup assay
Design in all cases: key: below the threshold = too weak to quantify, mostly under pKd 3.1 to 4
[1] = target: T1, PDZD4, Q76G19
T1 sequence (Q76G19 125-224, limits assumed, looked up): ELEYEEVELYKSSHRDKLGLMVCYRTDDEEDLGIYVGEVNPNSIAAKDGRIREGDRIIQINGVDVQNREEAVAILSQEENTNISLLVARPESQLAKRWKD

[2] = target: T2, APBA3_2, O96018
T2 sequence (O96018 480-570, limits assumed, looked up): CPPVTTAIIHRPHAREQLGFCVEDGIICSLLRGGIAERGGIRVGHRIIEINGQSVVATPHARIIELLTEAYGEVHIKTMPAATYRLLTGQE

[3] = target: MAGIX, Q9H6Y5
[4] = target: T3, SYNJ2BP, P57105
T3 sequence (P57105 8-110, limits assumed, looked up): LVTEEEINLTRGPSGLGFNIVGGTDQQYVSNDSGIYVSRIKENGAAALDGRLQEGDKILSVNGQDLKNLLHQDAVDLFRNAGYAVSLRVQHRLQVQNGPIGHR

[5] = target: SCRIB_4, Q14160
[6] = target: T4, PDZD2_4, O15018
T4 sequence (O15018 723-823, limits assumed, looked up): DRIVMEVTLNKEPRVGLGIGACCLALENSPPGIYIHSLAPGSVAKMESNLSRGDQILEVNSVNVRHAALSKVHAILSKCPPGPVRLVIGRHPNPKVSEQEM

[7] = target: T5, SHROOM2, Q13796
T5 sequence (Q13796 21-118, limits assumed, looked up): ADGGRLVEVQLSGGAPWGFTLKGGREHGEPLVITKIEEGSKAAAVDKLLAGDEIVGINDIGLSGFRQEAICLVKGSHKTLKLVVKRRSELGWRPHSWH

[8] = target: T6, MPDZ_11, O75970
T6 sequence (O75970 1720-1817, limits assumed, looked up): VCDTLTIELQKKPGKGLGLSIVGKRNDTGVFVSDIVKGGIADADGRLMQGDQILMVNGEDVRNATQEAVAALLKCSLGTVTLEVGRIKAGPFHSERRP

[9] = target: TJP1_1, Q07157
[10] = target: T7, MPDZ_3, O75970
T7 sequence (O75970 372-473, limits assumed, looked up): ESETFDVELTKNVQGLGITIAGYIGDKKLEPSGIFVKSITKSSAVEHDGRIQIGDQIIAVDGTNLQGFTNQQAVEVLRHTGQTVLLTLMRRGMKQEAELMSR

[11] = target: T8, NHERF1_1, O14745
T8 sequence (O14745 9-104, limits assumed, looked up): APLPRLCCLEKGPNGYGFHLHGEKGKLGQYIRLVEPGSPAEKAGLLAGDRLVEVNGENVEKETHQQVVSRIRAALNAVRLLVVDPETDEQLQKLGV

[12] = target: T9, SYNPO2L, Q9H987
T9 sequence (Q9H987 1-98, limits assumed, looked up): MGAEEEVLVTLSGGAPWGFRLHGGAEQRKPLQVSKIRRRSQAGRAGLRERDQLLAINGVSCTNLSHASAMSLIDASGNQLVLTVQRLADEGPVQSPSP

[13] = target: T10, MAGI2_1, Q86UL8
T10 sequence (Q86UL8 12-111, limits assumed, looked up): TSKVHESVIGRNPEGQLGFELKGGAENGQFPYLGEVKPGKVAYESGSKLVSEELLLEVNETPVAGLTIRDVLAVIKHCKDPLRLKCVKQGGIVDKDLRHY

[14] = target: T11, TJP3_1, O95049
T11 sequence (O95049 6-103, limits assumed, looked up): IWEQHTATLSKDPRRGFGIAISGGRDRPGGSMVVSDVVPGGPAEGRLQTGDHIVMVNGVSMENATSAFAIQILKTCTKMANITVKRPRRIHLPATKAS

[15] = target: RGS3, P49796-9
[16] = target: PDZD9, Q8IXQ8
[17] = target: T12, PDZRN3_2, Q9UPQ7
T12 sequence (Q9UPQ7 414-513, limits assumed, looked up): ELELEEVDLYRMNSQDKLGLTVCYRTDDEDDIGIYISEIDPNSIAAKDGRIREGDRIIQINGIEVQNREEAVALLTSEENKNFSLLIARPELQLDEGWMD

[18] = target: T13, PDZD2_1, O15018
T13 sequence (O15018 80-192, limits assumed, looked up): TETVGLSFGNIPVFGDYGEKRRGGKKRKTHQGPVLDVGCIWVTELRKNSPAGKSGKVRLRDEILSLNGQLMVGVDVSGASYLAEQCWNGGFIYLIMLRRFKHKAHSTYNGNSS

[19] = target: T14, PDZD2_6, O15018
T14 sequence (O15018 2745-2839, limits assumed, looked up): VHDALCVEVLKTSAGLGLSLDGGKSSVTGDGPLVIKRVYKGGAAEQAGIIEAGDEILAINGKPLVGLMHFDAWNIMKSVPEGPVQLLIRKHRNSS

[20] = target: T15, PDZD2_5, O15018
T15 sequence (O15018 2617-2716, limits assumed, looked up): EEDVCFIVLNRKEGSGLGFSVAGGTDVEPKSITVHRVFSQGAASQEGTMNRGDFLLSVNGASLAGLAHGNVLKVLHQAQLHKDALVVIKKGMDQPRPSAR

[21] = target: NHERF4_3, Q86UT5
[22] = plain residues with an end cap or a label only (N-terminal biotin on a linker: ttds)
[23] = plain residues with an end cap or a label only (N-terminal biotin on a linker: none)

Sequence of SCRIB_4, Q14160 (Q14160 1095-1204): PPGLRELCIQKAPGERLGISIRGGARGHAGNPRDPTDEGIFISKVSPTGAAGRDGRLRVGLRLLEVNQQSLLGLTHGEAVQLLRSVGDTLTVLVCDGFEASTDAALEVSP
Sequence of PDZD9, Q8IXQ8 (Q8IXQ8 23-120): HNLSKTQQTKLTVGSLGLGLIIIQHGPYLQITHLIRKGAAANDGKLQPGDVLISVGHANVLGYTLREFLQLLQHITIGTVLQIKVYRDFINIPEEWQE
Sequence of MAGIX, Q9H6Y5 (Q9H6Y5 118-211): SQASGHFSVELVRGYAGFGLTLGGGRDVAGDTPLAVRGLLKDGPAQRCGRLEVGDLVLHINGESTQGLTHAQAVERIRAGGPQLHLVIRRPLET
Sequence of NHERF4_3, Q86UT5 (Q86UT5 325-412): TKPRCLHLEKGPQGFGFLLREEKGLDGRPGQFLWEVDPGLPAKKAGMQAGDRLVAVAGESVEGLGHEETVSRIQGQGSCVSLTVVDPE
Sequence of RGS3, P49796-9 (P49796 other isoform, or with tags, fused parts or gaps): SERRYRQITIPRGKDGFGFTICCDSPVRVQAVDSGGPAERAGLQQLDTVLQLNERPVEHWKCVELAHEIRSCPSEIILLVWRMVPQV
Sequence of TJP1_1, Q07157 (Q07157 18-120): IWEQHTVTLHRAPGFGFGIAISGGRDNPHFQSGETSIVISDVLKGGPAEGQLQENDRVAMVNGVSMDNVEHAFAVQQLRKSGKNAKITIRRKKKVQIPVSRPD

IQREDQETAV [DGKZ, Q13574]
pKd [1, 22]: below the threshold | pKd [2, 22]: 4.74 | pKd [3, 22]: below the threshold | pKd [4, 22]: 5.31 | pKd [5, 22]: 4.4 | pKd [6, 22]: below the threshold | pKd [7, 22]: below the threshold | pKd [8, 22]: below the threshold | pKd [9, 22]: below the threshold | pKd [10, 22]: below the threshold | pKd [11, 22]: below the threshold | pKd [12, 22]: below the threshold | pKd [13, 22]: below the threshold | pKd [14, 22]: below the threshold | pKd [15, 22]: below the threshold | pKd [16, 22]: below the threshold | pKd [17, 22]: below the threshold | pKd [18, 22]: below the threshold | pKd [19, 22]: below the threshold | pKd [20, 22]: below the threshold | pKd [21, 22]: below the threshold

DSKPPLPPDEWV [MERS-E, K9N5R3]
pKd [1, 23]: below the threshold | pKd [2, 23]: below the threshold | pKd [3, 23]: below the threshold | pKd [4, 23]: 3.73 | pKd [5, 23]: 3.92 | pKd [6, 23]: below the threshold | pKd [7, 23]: below the threshold | pKd [8, 23]: below the threshold | pKd [9, 23]: below the threshold | pKd [10, 23]: below the threshold | pKd [11, 23]: below the threshold | pKd [12, 23]: 4.16 | pKd [13, 23]: below the threshold | pKd [14, 23]: 4.19 | pKd [15, 23]: 4.67 | pKd [16, 23]: below the threshold | pKd [17, 23]: below the threshold | pKd [18, 23]: below the threshold | pKd [19, 23]: below the threshold | pKd [20, 23]: below the threshold | pKd [21, 23]: below the threshold

DPLTPSRSQL [DGKK, Q5KSL6]
pKd [1, 22]: below the threshold | pKd [2, 22]: 4.47 | pKd [3, 22]: below the threshold | pKd [4, 22]: below the threshold | pKd [5, 22]: below the threshold | pKd [6, 22]: below the threshold | pKd [7, 22]: below the threshold | pKd [8, 22]: below the threshold | pKd [9, 22]: below the threshold | pKd [10, 22]: below the threshold | pKd [11, 22]: below the threshold | pKd [12, 22]: below the threshold | pKd [13, 22]: below the threshold | pKd [14, 22]: below the threshold | pKd [15, 22]: below the threshold | pKd [16, 22]: below the threshold | pKd [17, 22]: 4.11 | pKd [18, 22]: below the threshold | pKd [19, 22]: below the threshold | pKd [20, 22]: below the threshold | pKd [21, 22]: below the threshold
